According to patent publication US7892567:

Biological target: T1, transcription factor RFX-5, P48382
T1 chain: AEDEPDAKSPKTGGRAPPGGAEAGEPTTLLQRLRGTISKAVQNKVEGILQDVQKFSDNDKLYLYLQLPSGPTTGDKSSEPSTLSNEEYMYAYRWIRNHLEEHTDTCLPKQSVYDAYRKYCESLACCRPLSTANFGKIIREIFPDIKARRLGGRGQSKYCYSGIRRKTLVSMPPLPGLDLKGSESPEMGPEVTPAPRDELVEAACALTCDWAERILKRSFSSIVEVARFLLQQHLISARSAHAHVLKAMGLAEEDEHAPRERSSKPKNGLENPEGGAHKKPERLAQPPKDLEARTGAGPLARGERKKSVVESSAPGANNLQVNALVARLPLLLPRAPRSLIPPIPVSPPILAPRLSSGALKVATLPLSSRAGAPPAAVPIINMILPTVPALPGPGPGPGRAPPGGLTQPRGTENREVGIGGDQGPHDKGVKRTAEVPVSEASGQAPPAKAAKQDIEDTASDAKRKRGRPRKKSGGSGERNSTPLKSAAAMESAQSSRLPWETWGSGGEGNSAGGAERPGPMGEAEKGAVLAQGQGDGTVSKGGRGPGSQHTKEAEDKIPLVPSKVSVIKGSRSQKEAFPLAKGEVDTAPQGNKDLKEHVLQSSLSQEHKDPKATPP

B1: recombinant chlamydial protease-like activity factor (CPAF) from the C. trachomatis L2 genome, fusion protein with a 6-His tag at the N-terminus (protein)
chain: MGFWRTSIMKMNRIWLLLLTFSSAIHSPVRGESLVCKNALQDLSFLEHLLQVKYAPKTWKEQYLGWDLVQSSVSAQQKLRTQENPSTSFCQQVLADFIGGLNDFHAGVTFFAIESAYLPYTVQKSSDGRFYFVDIMTFSSEIRVGDELLEVDGAPVQDVLATLYGSNHKGTAAEESAALRTLFSRMASLGHKVPSGRTTLKIRRPFGTTREVRVKWRYVPEGVGDLATIAPSIRAPQLQKSMRSFFPKKDDAFHRSSSLFYSPMVPHFWAELRNHYATSGLKSGYNIGSTDGFLPVIGPVIWESEGLFRAYISSVTDGDGKSHKVGFLRIPTYSWQDMEDFDPSGPPPWEEFAKIIQVFSSNTEALIIDQTNNPGGSVLYLYALLSMLTDRPLELPKHRMILTQDEVVDALDWLTLLENVDTNVESRLALGDNMEGYTVDLQVAEYLKSFGRQVLNCWSKGDIELSTPIPLFGFEKIHPHPRVQYSKPICVLINEQDFSCADFFPVVLKDNDRALIVGTRTAGAGGFVFNVQFPNRTGIKTCSLTGSLAVREHGAFIENIGVEPHIDLPFTANDIRYKGYSEYLDKVKKLVCQLINNDGTIILAEDGSF
degradation of the transcription factor RFX-5: the biological activity of recombinant CPAF was confirmed by the ability to degrade the transcription factor, RFX-5
